According to IntAct's records for PubMed 19800331:

B1: BAG family molecular chaperone regulator 1 (Homo sapiens), Q99933 (parent)
chain: MAQRGGARRPRGDRERLGSRLRALRPGREPRQSEPPAQRGPPPSGRPPARSTASGHDRPTRGAAAGARRPRMKKKTRRRSTRSEELTRSEELTLSEEATWSEEATQSEEATQGEEMNRSQEVTRDEESTRSEEVTREEMAAAGLTVTVTHSNEKHDLHVTSQQGSSEPVVQDLAQVVEEVIGVPQSFQKLIFKGKSLKEMETPLSALGIQDGCRVMLIGKKNSPQEEVELKKLKHLEKSVEKIADQLEELNKELTGIQQGFLPKDLQAEALCKLDRRVKATIEQFMKILEEIDTLILPENFKDSRLKRKGLVKKVQAFLAECDTVEQNICQETERLQSTNFALAE

Variants of: B1
Settings: with hsp7c_human HSPA8, P11142
Chain of hsp7c_human HSPA8, P11142 (P11142 whole entry, looked up): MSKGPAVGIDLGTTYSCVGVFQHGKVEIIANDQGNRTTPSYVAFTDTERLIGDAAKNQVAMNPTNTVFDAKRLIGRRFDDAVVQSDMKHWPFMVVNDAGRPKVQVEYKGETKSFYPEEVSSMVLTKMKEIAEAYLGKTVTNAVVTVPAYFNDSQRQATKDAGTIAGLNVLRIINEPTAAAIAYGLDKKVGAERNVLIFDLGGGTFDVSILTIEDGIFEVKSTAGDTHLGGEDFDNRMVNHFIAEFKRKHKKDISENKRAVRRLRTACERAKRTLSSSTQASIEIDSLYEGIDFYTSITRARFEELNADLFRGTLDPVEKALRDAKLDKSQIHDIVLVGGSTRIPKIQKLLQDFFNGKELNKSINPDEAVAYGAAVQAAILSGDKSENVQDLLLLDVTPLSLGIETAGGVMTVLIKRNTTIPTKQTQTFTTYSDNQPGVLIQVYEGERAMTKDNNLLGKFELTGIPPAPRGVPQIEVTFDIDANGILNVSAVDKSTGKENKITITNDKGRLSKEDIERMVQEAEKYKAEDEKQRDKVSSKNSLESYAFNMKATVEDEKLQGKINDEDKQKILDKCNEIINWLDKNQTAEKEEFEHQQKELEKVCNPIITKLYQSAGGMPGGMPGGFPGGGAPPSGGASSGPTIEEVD

effect of a mutation on the interaction	Variant
decreasing interaction	K309A

Variants of: B1
Settings: with hsp7c_human HSPA8, P11142
Remark: another data set of the same source

effect of a mutation on the interaction	Variant
decreasing interaction	R308A
